Among the data in US20110212091 are MT1-MMP tyrosine phosphorylation values, retold here.

The test system of data set [1] is FGFR4 G388, V5-His tagged (FGFR4G388-V5-His).
Data set [2] has as its system FGFR4 R388, V5-His tagged (FGFR4R388-V5-His).

Turning to HA-tagged MT1-MMP, the MT1-MMP tyrosine phosphorylation result in data set [1] and in data set [2] was “repeatedly detected” in each case.
